In patent publication US20130323237A1 (Novartis, published 2013):

Legend:
[1] = target: T1, recombinant human TSLP (R&D Systems) (human, UniProt Q969D9 29-159); assay: BioVeris electrochemiluminescence screening, Fab in E. coli lysate on biotinylated TSLP coupled to streptavidin beads
T1 construct: also called hTSLP; human thymic stromal lymphopoietin
Protocol: BEL extracts were diluted in assay buffer (PBS/0.05% Tween20/0.5% BSA) for use in BioVeris screening.

[2] = target: T1, recombinant human TSLP (R&D Systems); assay: SPR (Biacore), biotinylated recombinant human TSLP on SA-chip, Fab as analyte
Protocol: A respective amount of biotinylated human serum albumin (HSA) was immobilized on the reference flow cell. […] The Fabs were applied in concentration series of 16-500 nM at a flow rate of 20 μl/min. Association phase was set to 60 s and dissociation phase to 120 s.

B1: MOR05024 Fab (Fab, V domains shown)
VH: QVQLVQSGAEVKKPGSSVKVSCKASGGTFSSYAISWVRQAPGQGLEWMGNIYPIFGYANYAQKFQGRVTITADESTSTAYMELSSLRSEDTAVYYCARYGQYGQHFSHGGMDVWGQGTLVTVSS
VL: DIQMTQSPSSLSASVGDRVTITCRASQDISISLTWYQQKPGKAPKLLIYGAFSLQSGVPSRFSGSGSGTDFTLTISSLQPEDFATYYCQQFWFEPVTFGQGTKVEIKR
- binding result [1]: binds

B2: MOR05023 Fab (Fab, V domains shown)
VH: QVQLVQSGAEVKKPGSSVKVSCKASGGTFSSYAISWVRQAPGQGLEWMGNIYPIFGYANYAQKFQGRVTITADESTSTAYMELSSLRSEDTAVYYCARYGQYGQHFSHGGMDVWGQGTLVTVSS
VL: DIQMTQSPSSLSASVGDRVTITCRASQDISISLTWYQQKPGKAPKLLIYGAFSLQSGVPSRFSGSGSGTDFTLTISSLQPEDFATYYCQQFYFHSPTFGQGTKVEIKR
- binding result [1]: binds

B3: MOR05026 Fab (Fab, V domains shown)
VH: QVQLVQSGAEVKKPGSSVKVSCKASGGTFSSYAISWVRQAPGQGLEWMGNIYPIFGYANYAQKFQGRVTITADESTSTAYMELSSLRSEDTAVYYCARYGQYGQHFSHGGMDVWGQGTLVTVSS
VL: DIQMTQSPSSLSASVGDRVTITCRASQDISISLTWYQQKPGKAPKLLIYGAFSLQSGVPSRFSGSGSGTDFTLTISSLQPEDFATYYCQQFWSEPVTFGQGTKVEIKR
- binding result [1]: binds

B4: MOR05025 Fab (Fab, V domains shown)
VH: QVQLVQSGAEVKKPGSSVKVSCKASGGTFSSYAISWVRQAPGQGLEWMGNIYPIFGYANYAQKFQGRVTITADESTSTAYMELSSLRSEDTAVYYCARYGQYGQHFSHGGMDVWGQGTLVTVSS
VL: DIQMTQSPSSLSASVGDRVTITCRASQDISISLTWYQQKPGKAPKLLIYGAFSLQSGVPSRFSGSGSGTDFTLTISSLQPEDFATYYCQQFWFHPVTFGQGTKVEIKR
- binding result [1]: binds

B5: MOR05027 Fab (Fab, V domains shown)
VH: QVQLVQSGAEVKKPGSSVKVSCKASGGTFSSYAISWVRQAPGQGLEWMGNIYPIFGYANYAQKFQGRVTITADESTSTAYMELSSLRSEDTAVYYCARYGQYGQHFSHGGMDVWGQGTLVTVSS
VL: DIQMTQSPSSLSASVGDRVTITCRASQDISISLTWYQQKPGKAPKLLIYGAFSLQSGVPSRFSGSGSGTDFTLTISSLQPEDFATYYCQQFWTEPVTFGQGTKVEIKR
- binding result [1]: binds

B6: MOR05020 Fab (Fab, V domains shown)
VH: QVQLVESGGGLVQPGGSLRLSCAASGFTFSNHALSWVRQAPGKGLEWVSGIQYDGSNTGYADSVKGRFTISRDNSKNTLYLQMNSLRAEDTAVYYCARYYGYSYMDYWGQGTLVTVSS
VL: DIELTQPPSVSVAPGQTARISCSGDNLGSKYVHWYQQKPGQAPVLVIYADNNRPSGIPERFSGSNSGNTATLTISGTQAEDEADYYCSSYDSNSIRVFGGGTKLTVLG
- binding result [1]: binds

B7: MOR05021 Fab (Fab, V domains shown)
VH: QVQLVESGGGLVQPGGSLRLSCAASGFTFSNHALSWVRQAPGKGLEWVSGIQYDGSNTGYADSVKGRFTISRDNSKNTLYLQMNSLRAEDTAVYYCARYYGYSYMDYWGQGTLVTVSS
VL: DIELTQPPSVSVAPGQTARISCSGDNLGSKYVHWYQQKPGQAPVLVIYADNNRPSGIPERFSGSNSGNTATLTISGTQAEDEADYYCSSYDLDGVRVFGGGTKLTVLG
- binding result [1]: binds

B8: MOR05022 Fab (Fab, V domains shown)
VH: QVQLVESGGGLVQPGGSLRLSCAASGFTFSNHALSWVRQAPGKGLEWVSGIQYDGSNTGYADSVKGRFTISRDNSKNTLYLQMNSLRAEDTAVYYCARYYGYSYMDYWGQGTLVTVSS
VL: DIELTQPPSVSVAPGQTARISCSGDNLGSKYVHWYQQKPGQAPVLVIYADNNRPSGIPERFSGSNSGNTATLTISGTQAEDEADYYCSSYTTSGIRVFGGGTKLTVLG
- binding result [1]: binds

B9: MOR05013 Fab (Fab, V domains shown)
VH: QVQLVESGGGLVQPGGSLRLSCAASGFTFSSYYMSWVRQAPGKGLEWVSGIFFDGETYYADSVKGRFTISRDNSKNTLYLQMNSLRAEDTAVYYCARQQYFDHIDIWGQGTLVTVSS
VL: DIELTQPPSVSVAPGQTARISCGGDSLGGKYVYWYQQKPGQAPVLVIYGDSKRPSGIPERFSGSNSGNTATLTISGTQAEDEADYYCQSYTNALSTVFGGGTKLTVLG
- binding result [1]: binds

B10: MOR05011 Fab (Fab, V domains shown)
VH: QVQLVESGGGLVQPGGSLRLSCAASGFTFSSYYMSWVRQAPGKGLEWVSGIFYDGSTYYPDSVKGRFTISRDNSKNTLYLQMNSLRAEDTAVYYCARQQYFDHIDIWGQGTLVTVSS
VL: DIELTQPPSVSVAPGQTARISCGGDSLGGKYVYWYQQKPGQAPVLVIYGDSKRPSGIPERFSGSNSGNTATLTISGTQAEDEADYYCQSYTNALSTVFGGGTKLTVLG
- binding result [1]: binds

B11: MOR05014 Fab (Fab, V domains shown)
VH: QVQLVESGGGLVQPGGSLRLSCAASGFTFSSYYMSWVRQAPGKGLEWVSGIFFDGTTYYADSVKGRFTISRDNSKNTLYLQMNSLRAEDTAVYYCARQQYFDHIDIWGQGTLVTVSS
VL: DIELTQPPSVSVAPGQTARISCGGDSLGGKYVYWYQQKPGQAPVLVIYGDSKRPSGIPERFSGSNSGNTATLTISGTQAEDEADYYCQSYTNALSTVFGGGTKLTVLG
- binding result [1]: binds

B12: MOR05012 Fab (Fab, V domains shown)
VH: QVQLVESGGGLVQPGGSLRLSCAASGFTFSSYYMSWVRQAPGKGLEWVSGIFFTGETYYPDSVKGRFTISRDNSKNTLYLQMNSLRAEDTAVYYCARQQYFDHIDIWGQGTLVTVSS
VL: DIELTQPPSVSVAPGQTARISCGGDSLGGKYVYWYQQKPGQAPVLVIYGDSKRPSGIPERFSGSNSGNTATLTISGTQAEDEADYYCQSYTNALSTVFGGGTKLTVLG
- binding result [1]: binds

B13: MOR05010 Fab (Fab, V domains shown)
VH: QVQLVESGGGLVQPGGSLRLSCAASGFTFSSYYMSWVRQAPGKGLEWVSGIFFDGETYYAGSVKGRFTISRDNSKNTLYLQMNSLRAEDTAVYYCARQQYFDHIDIWGQGTLVTVSS
VL: DIELTQPPSVSVAPGQTARISCGGDSLGGKYVYWYQQKPGQAPVLVIYGDSKRPSGIPERFSGSNSGNTATLTISGTQAEDEADYYCQSYTNALSTVFGGGTKLTVLG
- binding result [1]: binds

B14: MOR05015 Fab (Fab, V domains shown)
VH: QVQLVESGGGLVQPGGSLRLSCAASGFTFSSYYMSWVRQAPGKGLEWVSGTFFDGSTYYADSVKGRFTISRDNSKNTLYLQMNSLRAEDTAVYYCARQQYFDHIDIWGQGTLVTVSS
VL: DIELTQPPSVSVAPGQTARISCGGDSLGGKYVYWYQQKPGQAPVLVIYGDSKRPSGIPERFSGSNSGNTATLTISGTQAEDEADYYCQSYTNALSTVFGGGTKLTVLG
- binding result [1]: binds

B15: MOR04609 Fab (Fab, V domains shown)
VH: QVQLQQSGPGLVKPSQTLSLTCAISGDSVSSNSAAWGWIRQSPGRGLEWLGRIYYRSKWLNDYAVSVKSRITINPDTSKNQFSLQLNSVTPEDTAVYYCARDGGWYIDVWGQGTLVTVSS
VL: DIELTQPPSVSVAPGQTARISCSGDNLGSYYANWYQQKPGQAPVLVIYEDKRPSGIPERFSGSNSGNTATLTISGTQAEDEADYYCQSFDSYHSDYVFGGGTKLTVLG
notes: carries two C-terminal tags (FLAG and 6xHis)
- binding result [2]: binds

B16: MOR05016 Fab (Fab, V domains shown)
VH: QVQLVESGGGLVQPGGSLRLSCAASGFTFSSYYMSWVRQAPGKGLEWVSNISYDSSDTYYADSVKGRFTISRDNSKNTLYLQMNSLRAEDTAVYYCARQQYFDHIDIWGQGTLVTVSS
VL: DIELTQPPSVSVAPGQTARISCGGDSLGGKYVYWYQQKPGQAPVLVIYGDSKRPSGIPERFSGSNSGNTATLTISGTQAEDEADYYCQSYDLQSLNIVFGGGTKLTVLG
- binding result [1]: binds

B17: MOR05017 Fab (Fab, V domains shown)
VH: QVQLVESGGGLVQPGGSLRLSCAASGFTFSSYYMSWVRQAPGKGLEWVSNISYDSSDTYYADSVKGRFTISRDNSKNTLYLQMNSLRAEDTAVYYCARQQYFDHIDIWGQGTLVTVSS
VL: DIELTQPPSVSVAPGQTARISCGGDSLGGKYVYWYQQKPGQAPVLVIYGDSKRPSGIPERFSGSNSGNTATLTISGTQAEDEADYYCQSYDLKSLNVVFGGGTKLTVLG
- binding result [1]: binds

B18: MOR05018 Fab (Fab, V domains shown)
VH: QVQLVESGGGLVQPGGSLRLSCAASGFTFSSYYMSWVRQAPGKGLEWVSNISYDSSDTYYADSVKGRFTISRDNSKNTLYLQMNSLRAEDTAVYYCARQQYFDHIDIWGQGTLVTVSS
VL: DIELTQPPSVSVAPGQTARISCGGDSLGGKYVYWYQQKPGQAPVLVIYGDSKRPSGIPERFSGSNSGNTATLTISGTQAEDEADYYCQSYDLGSLNLVFGGGTKLTVLG
- binding result [1]: binds

B19: MOR05008 Fab (Fab, V domains shown)
VH: QVQLVQSGAEVKKPGSSVKVSCKASGGTFSSYAISWVRQAPGQGLEWMGGIIPEFGFTNYAQKFQGRVTITADESTSTAYMELSSLRSEDTAVYYCARSGMFYSILFDYWGQGTLVTVSS
VL: DIQMTQSPSSLSASVGDRVTITCRASQDIYNYLNWYQQKPGKAPKLLIYGASSLQSGVPSRFSGSGSGTDFTLTISSLQPEDFAVYYCQQQNDYPLTFGQGTKVEIKR
- binding result [1]: binds

B20: MOR05009 Fab (Fab, V domains shown)
VH: QVQLVQSGAEVKKPGSSVKVSCKASGGTFSSYAISWVRQAPGQGLEWMGHISPEFGFTNYAQKFQGRVTITADESTSTAYMELSSLRSEDTAVYYCARSGMFYSILFDYWGQGTLVTVSS
VL: DIQMTQSPSSLSASVGDRVTITCRASQDIYNYLNWYQQKPGKAPKLLIYGASSLQSGVPSRFSGSGSGTDFTLTISSLQPEDFAVYYCQQQNDYPLTFGQGTKVEIKR
- binding result [1]: binds

B21: MOR05019 Fab (Fab, V domains shown)
VH: QVQLVESGGGLVQPGGSLRLSCAASGFTFSNHALSWVRQAPGKGLEWVSVISFDGVKFYADSVKGRFTISRDNSKNTLYLQMNSLRAEDTAVYYCARYYGYSYMDYWGQGTLVTVSS
VL: DIELTQPPSVSVAPGQTARISCSGDNLGSKYVHWYQQKPGQAPVLVIYADNNRPSGIPERFSGSNSGNTATLTISGTQAEDEADYYCQSYDHMLQVFGGGTKLTVLG
notes: also called MOR5019
- binding result [1]: binds
